Reference: patent US10196447B2, “Anti-vascular endothelial growth factor receptor 2 (VEGFR2) antibody and methods of use thereof for detecting VEGFR2 and for inhibiting tumor growth, tumor angiogenesis and/or inducing cancer cell cytotoxicity” (Academia Sinica, priority 2015, dated 2019)

B1: R2PC28: phage-displayed human scFv clone binding VEGFR2; VH CDR1-3 SEQ ID NO: 11-13, VL CDR1/CDR3 SEQ ID NO: 14, 15 (antibody, V domains shown)
VH: EVQLVESGGALVQPGGSLRLSCVGSEFTFSHYNLHWVRQAPGKGLEWLAVISDDGRNKYYGDSVKGRFTISRDNSKNTLYLQMNGLRAEDTAVYYCARVPTVWRGGVYDIWGQGTMVTVSS
VL: EIVLTQSPATLSLSPGERATLSCRASQSVGSYLAWYQQRPGQPPRLLIYDASNRATGVAARFSGSGSGTDFTLTIDSLEAEDAATYYCHQSSSLPRTFGQGTKLEIK
B2: R2PC8: phage-displayed human scFv clone binding VEGFR2; VH CDR1-3 SEQ ID NO: 1-3, VL CDR1/CDR3 SEQ ID NO: 4, 5 (antibody, V domains shown)
VH: QVQLVQSGGGLVKPGGSLRLSCAASGFTFSSYSMSWVRQAPGKGLEWVSSISSSSSYIYYADSVKGRFTISRDNAKNSLYLQMNSLRAEDTAVYYCARSTDAFDIWGQGTMVTVSS
VL: DIVMTQSPSSLSASVGDRVTITCRASQRISNYLNWYQHKSGEDPKLLIYAASSLQSGVPSRFSGSGSGTDFTLTISSLQPEDFATYYCQQYDRYPPTFGQGTKLEIK
B3: R2PC45: phage-displayed human scFv clone binding VEGFR2; VH CDR1-3 SEQ ID NO: 21-23, VL CDR1/CDR3 SEQ ID NO: 24, 25 (antibody, V domains shown)
VH: QVNLRESGGGVVQPGRSLRLSCAASGFTFSSYAMHWVRQAPGKGLEWVAVISYDGSNKYYADSVKGRFTISRDNSKNTLYLQMNSLRAEDTAVYYCAREQDYGSSSGDAFDIWGQGTMVTVSS
VL: DIQMTQSPSSLSASVGDRVTITCRASQRISSYLNWYQQKPGKAPKLLIYDASNLQSGVPSRFSGSGSGTDFTLTINGLQPDDFAIYFCHQSYSAPPTFGQGTKVEIK
B4: R2PC29: phage-displayed human scFv clone binding VEGFR2; VH CDR1-3 SEQ ID NO: 16-18, VL CDR1/CDR3 SEQ ID NO: 19, 20 (antibody, V domains shown)
VH: QVQLQQSGAEMKKSGSSVKVSCKASGGNFISKGISWVRQAPGQGLEWMGGIIPLFGTGNYAQKFQGRVTITADESTTTVYLQLTSLTPEDTAMYFCATADVDYSDSLEAFDMWGQGTMVTVSS
VL: DIVMTQSPSSLSASVGDRVTITCRASQSINNYLNWYQQKPGKAPNLLIYGASSLQSGVPSRFRGSGSGTDFTLTISSLQPEDFATYYCQQSYSTPLFGQGTKLEIK

What follows are molecules tested against T1, VEGFR2-Fc (Homo sapiens, UniProt P35968) (assay: Screening of anti-VEGFR2 phage clones by ELISA). Conditions: 1×10^9 cfu phage titer.
T1 construct: purchased R&D Systems
T1 sequence (P35968 with tags, fused parts or gaps limits assumed): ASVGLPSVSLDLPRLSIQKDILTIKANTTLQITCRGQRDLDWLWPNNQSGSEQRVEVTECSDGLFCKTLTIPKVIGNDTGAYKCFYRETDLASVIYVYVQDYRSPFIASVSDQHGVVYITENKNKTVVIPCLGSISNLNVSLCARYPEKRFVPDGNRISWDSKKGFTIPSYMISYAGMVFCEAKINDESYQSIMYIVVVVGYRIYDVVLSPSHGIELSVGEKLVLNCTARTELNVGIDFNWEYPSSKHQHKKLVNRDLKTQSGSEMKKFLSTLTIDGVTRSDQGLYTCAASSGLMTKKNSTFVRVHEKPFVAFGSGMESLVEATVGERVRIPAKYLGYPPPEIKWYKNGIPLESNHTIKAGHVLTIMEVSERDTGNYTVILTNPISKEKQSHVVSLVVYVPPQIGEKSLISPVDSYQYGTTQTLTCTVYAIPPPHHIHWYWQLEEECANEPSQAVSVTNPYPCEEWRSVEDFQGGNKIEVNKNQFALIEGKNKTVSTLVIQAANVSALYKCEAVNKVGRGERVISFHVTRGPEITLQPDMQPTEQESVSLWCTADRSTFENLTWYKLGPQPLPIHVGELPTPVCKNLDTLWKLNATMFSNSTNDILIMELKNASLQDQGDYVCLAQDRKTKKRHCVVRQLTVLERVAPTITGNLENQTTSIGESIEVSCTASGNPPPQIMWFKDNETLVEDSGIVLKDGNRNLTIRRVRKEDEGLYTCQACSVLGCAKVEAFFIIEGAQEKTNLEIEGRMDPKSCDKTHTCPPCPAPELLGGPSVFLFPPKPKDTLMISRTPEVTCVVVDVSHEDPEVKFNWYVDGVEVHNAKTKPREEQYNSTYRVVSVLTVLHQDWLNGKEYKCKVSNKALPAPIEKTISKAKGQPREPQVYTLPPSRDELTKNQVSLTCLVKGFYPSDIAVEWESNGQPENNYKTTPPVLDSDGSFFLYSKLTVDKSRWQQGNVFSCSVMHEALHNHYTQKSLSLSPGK
Type: binding
Procedure: (§1) The selected phages were further examined by ELISA screening. The 96-well plates were coated with 1 μg/ml of VEGFR2-Fc, Met-Fc (R&D), or BSA (Sigma) protein in 0.1 M sodium bicarbonate overnight at 4° C. After blocking with 1% BSA in PBS (w/v) for 2 hr at room temperature, 70-randomly selected phage clones were added to the plates at a 1:2 dilution in 1% BSA, and incubated for 1 hr at room temperature. Following washes with PBST, the plates were incubated with a 1:2000 dilution of horseradish peroxidase (HRP)-conjugated mouse anti-M13 phage antibody (GE) for 1 hr. After washing with PBST, the colorimetric reaction was developed with the peroxidase substrate ortho-phenylenediamine (OPD; Sigma) plus H2O2 for 15 min, and then terminated by the addition of 3 N HCl. The absorbance at 490 nm was determined using a microplate reader (SpectraMax, Molecular Devices). Plasmid DNA of positive clones were isolated and sequenced using the pCANTAB5 sequencing primer set.

Molecule	binding of phage clones to VEGFR2-Fc
B1	bind highly
B2	bind highly
B3	bind highly
B4	bind highly

The molecules below were run on Met-Fc (assay: Phage clone ELISA on control protein). Conditions: not given.
Type: binding
Procedure: as §1

Molecule	binding of phage clones to c-Met-Fc control protein
B1	not
B2	not
B3	not
B4	not
